Data published in publication PMC8072242 (Proceedings of the National Academy of Sciences of the …, 2021).

Legend:
[1] = molecular target: T1, MsDyP (unencapsulated DyP) (Mycolicibacterium smegmatis, UniProt A0R4G9); format: biochemical
T1 sequence (A0R4G9 1-343): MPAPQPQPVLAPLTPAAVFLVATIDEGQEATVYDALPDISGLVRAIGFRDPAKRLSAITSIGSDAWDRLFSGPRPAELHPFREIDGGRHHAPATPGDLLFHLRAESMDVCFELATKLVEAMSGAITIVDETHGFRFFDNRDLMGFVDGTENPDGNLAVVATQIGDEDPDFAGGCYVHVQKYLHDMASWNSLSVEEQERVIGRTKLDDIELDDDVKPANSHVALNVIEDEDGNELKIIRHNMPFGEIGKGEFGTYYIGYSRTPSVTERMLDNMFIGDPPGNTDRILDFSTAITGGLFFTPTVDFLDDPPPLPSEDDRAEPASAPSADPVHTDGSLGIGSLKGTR

cryo-EM structure = molecular target: the molecule itself; experiment: cryo-EM structure

Oc1cccc(O)c1O [pyrogallol]
peroxidase assay, oxidation monitored at 430 nm [1]: utilizing H2O2 as the electron acceptor and pyrogallol (Sigma P0381-25g) as an electron donor

B1: DyP (dye-decolorizing peroxidase), native cargo of the Mycobacterium smegmatis encapsulin (enzyme)
chain: T1 sequence (A0R4G9 1-343)
stoichiometry N (cryo-EM structure): 12

B2: CFP-29 (29 kDa culture filtrate protein), encapsulin shell protein of Mycobacterium smegmatis (natural protein)
chain: MNNLYRDLAPITESAWAEIELEATRTFKRHIAGRRVVDVSGPNGPTTASVSTGHLLDVSPPGDGVIAHLRDAKPLVRLRVPFTVARRDIDDVERGSQDSDWDPVKDAAKKLAFVEDRAIFEGYAAASIEGIRSSSSNPALALPDDAREIPDVIAQALSELRLAGVDGPYSVLLSAETYTKVSETTAHGYPIREHINRLVDGEIIWAPAIDGAFVLSTRGGDFDLQLGTDVSIGYLSHDAEVVHLYMEETMTFLCYTAEASVALTP
stoichiometry N (cryo-EM structure): 60
